B1: human LPXN LIM4 (324-386), 15N-labeled, GST tag removed (domain or fragment, UniProt O60711 324-386, looked up)
chain: RRGTLCHGCGQPITGRCISAMGYKFHPEHFVCAFCLTQLSKGIFREQNDKTYCQPCFNKLFPL
modifications: also: 15N-labeled
B2: human PXN (paxillin-γ) LIM4 (541-605), 15N-labeled, GST tag removed (domain or fragment, UniProt P49023-3 541-605, looked up)
chain: YHERRGSLCSGCQKPITGRCITAMAKKFHPEHFVCAFCLKQLNKGTFKEQNDKPYCQNCFLKLFC
modifications: also: 15N-labeled

Key:
[1] = biological target: Paxillin (UniProt P49023); settings: cited from earlier work
[2] = biological target: human Kindlin-3 F0 (1-105), GST tag removed (human, UniProt Q86UX7 1-105); assay: NMR titration
human Kindlin-3 F0 (1-105), GST tag removed, sequence (Q86UX7 1-105): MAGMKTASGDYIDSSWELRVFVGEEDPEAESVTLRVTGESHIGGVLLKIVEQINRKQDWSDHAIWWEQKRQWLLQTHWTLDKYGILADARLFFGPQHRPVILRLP

Molecule | Kd [1] [µM] | Kd [2] [µM]
Kindlin-2 (from UniProt Q96AC1) | 201 | 
B1 |  | 192
B2 |  | 117

From paper PMC8203317 (Journal of immunology (Baltimore, Md. : 1950), 2020)
